{"source": "patent US20250152742A1", "about": "“COMPOSITIONS AND METHODS FOR NEUROLOGICAL DISEASES” (Trames Bio, Inc., priority 2022, published 2025)", "tested_on": "engineered chimeric receptor SEQ ID NO: 33 and its mutants (human α7-nAChR ligand binding domain / human GlyRα1 ion pore domain) in Lenti-X 293T cells", "assay": "YFP fluorescence quenching anion reporter plate reader assay (percent quench, EC50)", "type": "cell-based", "settings": "for YFP fluorescence quenching using CNL001 (percent quench): receptor named in row; for YFP fluorescence quenching using Varenicline, 3 nM var: ligand Varenicline 3 nM; for YFP fluorescence quenching using Varenicline, 30 nM var: ligand Varenicline 30 nM; for YFP fluorescence quenching using Varenicline, 300 nM var: ligand Varenicline 300 nM; for YFP fluorescence quenching using Varenicline, 500 nM var: ligand Varenicline 500 nM; for YFP fluorescence quenching using Varenicline, 1 uM var: ligand Varenicline 1 uM", "how_it_was_run": "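Lenti-X 293T cells co-expressing an anion-quenchable YFP were transiently transfected with receptor DNA, then ligand was added in NaI-substituted buffer (pH 7.2) after 30 min at 37 °C. Fluorescence was read about 2 min; percent quench = mean of last 10 s over 15 s pre-ligand baseline.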", "data": [{"molecule": "CODA1027: engineered receptor: R101F, L131D in SEQ ID NO: 33 (protein, synthetic sequence of chimeric LGIC) MRCSPGGVWLALAASLLHVSLQGEFQRKLYKELVKNYNPLERPVANDSQPLTVYFSLSLLQIMDVDEKNQVLTTNIWLQMSWTDHYLQWNVSEYPGVKTVFFPDGQIWKPDILLYNSADERFDATFHTNVDVNSSGHCQYLPPGIFKSSCPMDLKNFPMDVQTCKLKFGSWSYGGWSLDLQMQEADISGYIPNGEWDLVGIPGKRSERFYECCKEPYPDVTFTVTMRRRMGYYLIQMYIPSLLIVILSWISFWINMDAAPARVGLGITTVLTMTTQSSGSRASLPKVSYVKAIDIWMAVCLLFVFSALLEYAAVNFVSRQHKELLRFRRKRRHHKSPMLNLFQEDEAGEGRFNFSAYGMGPACLQAKDGISVKGANNSNTTNPPPAPSKSPEEMRKLFIQRAKKIDKISRIGFPMAFLIFNMFYWIIYKIVRREDVHNQ", "values": [{"measurement": "YFP fluorescence quenching using CNL001 (percent quench)", "setting": "1 nM CNL001, first column so headed", "result": 24.049, "unit": "%"}, {"measurement": "YFP fluorescence quenching using CNL001 (percent quench)", "setting": "1 nM CNL001, second column so headed", "result": 36.755, "unit": "%"}, {"measurement": "YFP fluorescence quenching using TC-5619/Bradanicline (percent quench)", "setting": "1 nM brd (TC-5619/Bradanicline)", "result": "−10.07", "unit": "%"}, {"measurement": "YFP fluorescence quenching using TC-5619/Bradanicline (percent quench)", "setting": "3 nM brd (TC-5619/Bradanicline)", "result": "−0.8", "unit": "%"}, {"measurement": "YFP fluorescence quenching using CNL001 (percent quench)", "setting": "10 nM CNL001, first column so headed", "result": 52.927, "unit": "%"}, {"measurement": "YFP fluorescence quenching using CNL001 (percent quench)", "setting": "10 nM CNL001, second column so headed", "result": 61.449, "unit": "%"}, {"measurement": "YFP fluorescence quenching using TC-5619/Bradanicline (percent quench)", "setting": "10 nM brd (TC-5619/Bradanicline)", "result": 1.74, "unit": "%"}, {"measurement": "YFP fluorescence quenching using TC-6683 (percent quench)", "setting": "30 nM TC-6683", "result": 1.189, "unit": "%"}, {"measurement": "YFP fluorescence quenching using TC-5619/Bradanicline (percent quench)", "setting": "30 nM brd (TC-5619/Bradanicline)", "result": 53.95, "unit": "%"}, {"measurement": "YFP fluorescence quenching using CNL001 (percent quench)", "setting": "50 nM CNL001, first column so headed", "result": 67.308, "unit": "%"}, {"measurement": "YFP fluorescence quenching using CNL001 (percent quench)", "setting": "50 nM CNL001, second column so headed", "result": 68.77, "unit": "%"}, {"measurement": "YFP fluorescence quenching using ABT-126 (percent quench)", "setting": "50 nM abt (ABT-126)", "result": "−11.89", "unit": "%"}, {"measurement": "YFP fluorescence quenching using CNL001 (percent quench)", "setting": "100 nM CNL001, first column so headed", "result": 69.049, "unit": "%"}, {"measurement": "YFP fluorescence quenching using CNL001 (percent quench)", "setting": "100 nM CNL001, second column so headed", "result": 71.613, "unit": "%"}, {"measurement": "YFP fluorescence quenching (percent quench)", "setting": "100 nM CNL002", "result": 7.75, "unit": "%"}, {"measurement": "YFP fluorescence quenching using ABT-126 (percent quench)", "setting": "100 nM abt (ABT-126)", "result": "−16.07", "unit": "%"}, {"measurement": "YFP fluorescence quenching using AZD-0328 (percent quench)", "setting": "100 nM azd0328", "result": "−4.76", "unit": "%"}, {"measurement": "YFP fluorescence quenching using TC-6683 (percent quench)", "setting": "300 nM TC-6683", "result": 0.939, "unit": "%"}, {"measurement": "YFP fluorescence quenching using ABT-126 (percent quench)", "setting": "300 nM abt (ABT-126)", "result": "−11.21", "unit": "%"}, {"measurement": "YFP fluorescence quenching using AZD-0328 (percent quench)", "setting": "300 nM azd0328", "result": "−7.52", "unit": "%"}, {"measurement": "YFP fluorescence quenching using TC-5619/Bradanicline (percent quench)", "setting": "300 nM brd (TC-5619/Bradanicline)", "result": 76.74, "unit": "%"}, {"measurement": "YFP fluorescence quenching using CNL001 (percent quench)", "setting": "1 uM CNL001, first column so headed", "result": 71.811, "unit": "%"}, {"measurement": "YFP fluorescence quenching using CNL001 (percent quench)", "setting": "1 uM CNL001, second column so headed", "result": 69.907, "unit": "%"}, {"measurement": "YFP fluorescence quenching (percent quench)", "setting": "1 uM CNL002", "result": 61.97, "unit": "%"}, {"measurement": "YFP fluorescence quenching using ABT-126 (percent quench)", "setting": "1 uM abt (ABT-126)", "result": "−9.38", "unit": "%"}, {"measurement": "YFP fluorescence quenching using TC-6683 (percent quench)", "setting": "3 uM TC-6683", "result": 1.327, "unit": "%"}, {"measurement": "YFP fluorescence quenching (percent quench)", "setting": "10 uM ach (acetylcholine)", "result": "−1.62", "unit": "%"}, {"measurement": "YFP fluorescence quenching (percent quench)", "setting": "30 uM CNL002", "result": 65.77, "unit": "%"}, {"measurement": "YFP fluorescence quenching using TC-6683 (percent quench)", "setting": "30 uM TC-6683", "result": "−0.845", "unit": "%"}, {"measurement": "YFP fluorescence quenching using AZD-0328 (percent quench)", "setting": "30 uM azd0328", "result": 74.9, "unit": "%"}, {"measurement": "YFP fluorescence quenching (percent quench)", "setting": "50 uM ach (acetylcholine)", "result": "−1.6", "unit": "%"}, {"measurement": "YFP fluorescence quenching using TC-6683 (percent quench)", "setting": "100 uM TC-6683", "result": "−3.136", "unit": "%"}, {"measurement": "YFP fluorescence quenching (percent quench)", "setting": "100 uM ach (acetylcholine)", "result": "−2.62", "unit": "%"}, {"measurement": "YFP fluorescence quenching (percent quench)", "setting": "300 uM ach (acetylcholine)", "result": "−6.12", "unit": "%"}, {"measurement": "YFP fluorescence quenching (percent quench)", "setting": "500 uM ach (acetylcholine)", "result": "−7.71", "unit": "%"}, {"measurement": "YFP fluorescence quenching (percent quench)", "setting": "1 mM ach (acetylcholine)", "result": "−5.73", "unit": "%"}, {"measurement": "YFP fluorescence quenching (percent quench)", "setting": "3 mM ach (acetylcholine)", "result": 33.69, "unit": "%"}, {"measurement": "YFP fluorescence quenching using Facinicline, 30 nM fac", "setting": "ligand Facinicline 30 nM", "result": "−10.05"}, {"measurement": "YFP fluorescence quenching using Facinicline, 300 nM fac", "setting": "ligand Facinicline 300 nM", "result": "−12.54"}, {"measurement": "YFP fluorescence quenching using Facinicline, 30 uM fac", "setting": "ligand Facinicline 30 uM", "result": 70.96}, {"measurement": "YFP fluorescence quenching using TC-6987, 1 uM tc6987", "setting": "ligand TC-6987 1 uM", "result": 0.88}, {"measurement": "YFP fluorescence quenching using TC-6987, 10 uM tc6987", "setting": "ligand TC-6987 10 uM", "result": 56.27}, {"measurement": "YFP fluorescence quenching using TC-6987, 500 uM tc6987", "setting": "ligand TC-6987 500 uM", "result": 71.3}, {"measurement": "YFP fluorescence quenching using Varenicline, 3 nM var", "setting": "first column", "result": "−3.367"}, {"measurement": "YFP fluorescence quenching using Varenicline, 3 nM var", "setting": "second column", "result": "−0.431"}, {"measurement": "YFP fluorescence quenching using Varenicline, 30 nM var", "setting": "first column", "result": "−0.761"}, {"measurement": "YFP fluorescence quenching using Varenicline, 30 nM var", "setting": "second column", "result": 2.989}, {"measurement": "YFP fluorescence quenching using Varenicline, 300 nM var", "setting": "first column", "result": 2.966}, {"measurement": "YFP fluorescence quenching using Varenicline, 300 nM var", "setting": "second column", "result": 10.211}, {"measurement": "YFP fluorescence quenching using Varenicline, 500 nM var", "setting": "first column", "result": 15.278}, {"measurement": "YFP fluorescence quenching using Varenicline, 500 nM var", "setting": "second column", "result": 20.84}, {"measurement": "YFP fluorescence quenching using Varenicline, 1 uM var", "setting": "first column", "result": 37.104}, {"measurement": "YFP fluorescence quenching using Varenicline, 1 uM var", "setting": "second column", "result": 42.439}]}]}
